Laboratory results as given in patent publication US20160024196A1 (Amgen, published 2016).

Columns and labels:
murine SFRP5 [1] = biological target: T1, murine SFRP5 (mouse, UniProt Q9WU66 22-314, limits assumed); assay: kinetics; method not stated (Table 12, repeats Table 8)
T1 construct: also called mouse SFRP5; muSFRP5
T1 sequence: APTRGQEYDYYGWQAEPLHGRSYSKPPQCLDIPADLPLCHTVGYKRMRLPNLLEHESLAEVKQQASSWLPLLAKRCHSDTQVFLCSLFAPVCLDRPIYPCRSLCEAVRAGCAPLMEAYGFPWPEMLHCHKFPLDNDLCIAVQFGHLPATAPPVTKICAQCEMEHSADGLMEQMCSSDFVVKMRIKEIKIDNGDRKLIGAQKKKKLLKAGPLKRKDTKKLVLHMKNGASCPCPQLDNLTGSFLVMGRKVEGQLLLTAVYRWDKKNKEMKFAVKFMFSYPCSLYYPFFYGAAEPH

murine SFRP5 [2] = biological target: T1, murine SFRP5; assay: kinetics; method and SFRP5 construct not stated (Table 8)

B1: anti-SFRP5 monoclonal antibody subclone 24C18.3 (antibody, IgG2b, V domains shown)
VH: QVQLTQSGAELVRPGASVKLSCKASGYTFTDYYINWVKQRPGQGLEWIARIYPGSGNTYYNEKFKGKATLTAEKSSSTAYMQLSSLTSEDSAVYFCAAYSASAMDYWGQGTSVTVSS
VL: NVVLTQSPASLAVSLGQRATISCRASESVDSYGKSFMYWYQQKPGQPPKLLIYLANNLESGVPARFSGSGSRTDFTLTIDPVEADDAASYYCQQNNEDPWTFGGGTKLEIK
notes: also called mu24C18.3
Which Kd (murine SFRP5 [1]) does the source give for B1 here?
The Kd was 0.658 nM.

And the koff (murine SFRP5 [1])?
The koff was 7.36e-05 s⁻¹.

What about the kon (murine SFRP5 [1]) of the same binder?
Its kon is 112000 M⁻¹ s⁻¹.

And the Kd (murine SFRP5 [2])?
Its Kd is 0.658 nM.

What about the koff (murine SFRP5 [2]) of the same binder?
Its koff is 7.36e-05 s⁻¹.

What about the kon (murine SFRP5 [2]) of the same binder?
The kon was 112000 M⁻¹ s⁻¹.
